The values below come from paper PMC10120378.

Like-named read-outs stand apart in the source and are kept apart here.

What all share (assay): fluorescence polarization
For orientation: Polarisation of emitted light reports the rotation of a fluorescent probe.

The target in data set [1] is T1, HUα2 P63A (Escherichia coli (MG1655-derived …, UniProt P0ACF0 1-90, P63A)).
In data set [2] the target is T2, HUα2 wild-type (Escherichia coli (MG1655-derived …, UniProt P0ACF0 1-90)).
For data set [3], the target named is T2, HUα2 wild-type. This is another data set of the same source.
For data set [4], the target named is T1, HUα2 P63A. This is another data set of the same source.

B1: linear DNA of random sequence (40 bp) (dsDNA)
DNA 1: CCGACTAAGTACATGTGAGAATTTTGCTGCCTTCGAACCT
DNA 2: AGGTTCGAAGGCAGCAAAATTCTCACATGTACTTAGTCGG
For B1, the binding result in data set [1] is on record as “binds”. Also, the Kd in data set [2] was found to be 51 ± 4 nM.

B2: cruciform DNA (structured_DNA)
DNA 1: CCTAGCAAGGGGCTGCTACCTTTGGTAGCAGCCTGAGCGGTGG
DNA 2: CCACCGCTCAACTCAACTGCTTTGCAGTTGAGTCCTTGCTAGG
On to B2, for which the Kd in data set [3] turned out to be 178 ± 22 nM; in data set [4], 352 nM.

By Kd is commonly meant the constant that tells how readily two partners part at equilibrium.
